In patent US12692524B2, “Sialyltransferases and their use in producing sialylated oligosaccharides” (Chr. Hansen A/S, priority 2017, dated 2026):

B1: SiaT1: sialyltransferase of Neisseria meningitidis, acc. U60660, SEQ ID NO: 5 (protein, listed as Neisseria meningitidis)
chain: MGLKKACLTVLCLIVFCFGIFYTFDRVNQGERNAVSLLKEKLFNEEGEPVNLIFCYTILQMKVAERIMAQHPGERFYVVLMSENRNEKYDYYFNQIKDKAERAYFFHLPYGLNKSFNFIPTMAELKVKSMLLPKVKRIYLASLEKVSIAAFLSTYPDAEIKTFDDGTGNLIQSSSYLGDEFSVNGTIKRNFARMMIGDWSIAKTRNASDEHYTIFKGLKNIMDDGRRKMTYLPLFDASELKTGDETGGTVRILLGSPDKEMKEISEKAAKNFKIQYVAPHPRQTYGLSGVTTLNSPYVIEDYILREIKKNPHTRYEIYTFFSGAALTMKDFPNVHVYALKPASLPEDYWLKPVYALFTQSGIPILTFDDKN
B2: SiaT11: sialyltransferase of Photobacterium damselae JT0160, acc. BAA25316, SEQ ID NO: 31 (protein, listed as Photobacterium damsela)
chain: MKKILTVLSIFILSACNSDNTSLKETVSSNSADVVETETYQLTPIDAPSSFLSHSWEQTCGTPILNESDKQAISFDFVAPELKQDEKYCFTFKGITGDHRYITNTTLTVVAPTLEVYIDHASLPSLQQLIHIIQAKDEYPSNQRFVSWKRVTVDADNANKLNIHTYPLKGNNTSPEMVAAIDEYAQSKNRLNIEFYTNTAHVFNNLPPIIQPLYNNEKVKISHISLYDDGSSEYVSLYQWKDTPNKIETLEGEVSLLANYLAGTSPDAPKGMGNRYNWHKLYDTDYYFLREDYLDVEANLHDLRDYLGSSAKQMPWDEFAKLSDSQQTLFLDIVGFDKEQLQQQYSQSPLPNFIFTGTTTWAGGETKEYYAQQQVNVINNAINETSPYYLGKDYDLFFKGHPAGGVINDIILGSFPDMINIPAKISFEVLMMTDMLPDTVAGIASSLYFTIPADKVNFIVFTSSDTITDREEALKSPLVQVMLTLGIVKEKDVLFWADHKVNSMEVAIDEACTRIIAKRQPTASDLRLVIAIIKTITDLERIGDVAESIAKVALESFSNKQYNLLVSLESLGQHTVRMLHEVLDAFARMDVKAAIEVYQEDDRIDQEYESIVRQLMAHMMEDPSSIPNVMKVMWAARSIERVGDRCQNICEYIIYFVKGKDVRHTKPDDFGTMLD
B3: SiaT2: sialyltransferase of Campylobacter jejuni strain OH4384, acc. AF130466, SEQ ID NO: 10 (protein, listed as Campylobacter jejuni)
chain: MTRTRMENELIVSKNMQNIIIAGNGPSLKNINYKRLPREYDVFRCNQFYFEDKYYLGKKIKAVFFNPGVFLQQYHTAKQLILKNEYEIKNIFCSTFNLPFIESNDFLHQFYNFFPDAKLGYEVIENLKEFYAYIKYNEIYFNKRITSGVYMCAIAIALGYKTIYLCGIDFYEGDVIYPFEAMSTNIKTIFPGIKDFKPSNCHSKEYDIEALKLLKSIYKVNIYALCDDSILANHFPLSININNNFTLENKHNNSINDILLTDNTPGVSFYKNQLKADNKIMLNFYNILHSKDNLIKFLNKEIAVLKKQTTQRAKARIQNHLSYKLGQALIINSKSVLGFLSLPFIILSIVISHKQEQKAYKFKVKKNPNLALPPLETYPDYNEALKEKECFTYKLGEEFIKAGKNWYGEGYIKFIFKDVPRLKREFEKGE

What was measured:
[1] = In vitro sialylation of LNT by protein extracts, LST-a/-b quantified by LC-MS/MS; assay type: biochemical
Method: Escherichia coli BL21(DE3) harbouring plamids encoding for 100 sialyltransferases were grown at 30° C. in 100 ml shake flasks filled with 20 ml of 2YT medium supplemented with ampicillin 100 μg ml^−1. When the cultures reached an OD600 of 0.1 to 0.3, gene expression was induced by addition of 0.3 mM IPTG and the incubation was continued for 12 to 16 hours. Cells were harvested by centrifugation and mechanically disrupted in a defined volume of 50 mM Tris-HCl pH7.5 using glass beads. The protein extract was kept on ice until the assay started. The in vitro assay was carried out in a total volume of 25 μl including 50 mM Tris-HCl pH7.5, 5 mM MgCl2, 10 mM CMP-Neu5Ac and 5 mM LNT. The assay started with the addition of 3 μl protein extract and continued for 16 hours. Product formation was determined by mass spectrometry.
Mass spectrometry analysis was performed by MRM (multiple reaction monitoring) using a LC Triple-Quadrupole MS detection system. Precursor ions are selected and analyzed in quadrupole 1, fragmentation takes place in the collision cell using argon as CID gas, selection of fragment ions is performed in quadrupole 3. Chromatographic separation of lactose, 3′-Sialyllactose and 6′-Sialyllactose after dilution of culture supernatant 1:100 with H2O (LC/MS Grade), was performed on a XBridge Amide HPLC column (3.5 μm, 2.1×50 mm (Waters, USA) with a XBridge Amide guard cartridge (3.5 μm, 2.1×10 mm) (Waters, USA). Column oven temperature of the HPLC system was 50° C. The mobile phase was composed of acetonitrile:H2O with 10 mM ammonium acetate. A 1 μl sample was injected into the instrument; the run was performed for 3.60 min with a flow rate of 400 μl/min. 3′-Sialyllactose and 6′-Sialyllactose were analyzed by MRM in ESI positive ionization mode. The mass spectrometer was operated at unit resolution. Sialyllactose forms an ion of m/z 656.2 [M+Na]. The precursor ion of Sialyllactose was further fragmented in the collision cell into the fragment ions m/z 612.15, m/z 365.15 and m/z 314.15. Collision energy, Q1 and Q3 Pre Bias were optimized for each analyte individually. Chromatographic separation of lactose, LNT-II, LNT and LST-a or -b after dilution of particle-free biocatalysis-reaction or crude extract, respectively, 1:50 with H2O (LC/MS Grade), was performed on a XBridge Amide HPLC column (3.5 μm, 2.1×50 mm (Waters, USA) with a XBridge Amide guard cartridge (3.5 μm, 2.1×10 mm) (Waters, USA). Column oven was run at 35° C. The mobile phase was composed of acetonitrile:H2O with 0.1% ammonium hydroxide. A 1 μl sample was injected into the instrument; the run was performed for 3.50 min with a flow rate of 300 μl/min. Lactose, LNT-II, LNT as well as LST-a and -b were analyzed by MRM in ESI negative ionization mode. The mass spectrometer was operated at unit resolution. Lactose forms an ion of m/z 341.00 [M−H]. The precursor ion of Lactose was further fragmented in the collision cell into the fragment ions m/z 179.15, m/z 161.15 and m/z 101.05. LNT-II forms an ion of m/z 544.20 [M−H]. The precursor ion of LNT-II was further fragmented into the fragment ions m/z 382.10, m/z 161.00 and m/z 112.90. LNT forms an ion of m/z 706.20 [M−H]. The precursor ion of LNT was further fragmented into the fragment ions m/z 382.10, m/z 202.10 and m/z 142.00. LST-a and -b forms an ion of m/z 997.20 [M−H]. The precursor ion of LST-a and-b was further fragmented into the fragment ions m/z 290.15, m/z 202.15 and m/z 142.15. Collision energy, Q1 and Q3 Pre Bias were optimized for each analyte individually. Quantification methods were established using commercially available standards (Carbosynth, Compton, UK).
Twenty eight genes were identified to produce LST-a whereas only 6 enzymes synthesized LST-b. […] Irrespectively of the protein overexpression level, sialyltransferases that produced best were selected for determination of Km and Vmax.

[2] = In vivo screening in E. coli #1363/#1730 with lactose as acceptor, sialyllactose identified by TLC; assay type: cell-based, Escherichia coli BL21(DE3); settings: for Production of sialyllactose in-vivo: 1.5 mM lactose, 72 to 96 hours, qualitative via TLC; for Described activity confirmed in the lactose screening: in words
Method: Escherichia coli BL21(DE3) #1363 and #1730 harbouring plasmids encoding for 100 sialyltransferases were grown at 30° C. in 100 ml shake flasks filled with 20 ml of mineral salts medium (Samain et al., J. Biotech. 1999, 72:33-47) supplemented with 2% (wt/vol) glucose, ampicillin 100 μg ml^−1, kanamycin 15 μg ml^−1 and zeocin 40 μg ml^−1. When the cultures reached an OD600 of 0.1 to 0.3, gene expression was induced by addition of 0.3 mM IPTG. After an incubation for one hour, 1.5 mM lactose was added to #1363 cultures whereas 1.5 mM lactose as well as 1.5 mM sialic acid was added to #1730 cultures. The incubation continued for 72 to 96 hours. Then, cells were harvested by centrifugation and mechanically disrupted in a defined volume using glass beads. Subsequently, samples were applied to thin layer chromatography (TLC) on Silica Gel 60 F254 (Merck KGaA, Darmstadt, Germany). A mixture of butanol:acetone:acetic acid:H2O (35/35/7/23 (v/v/v/v)) was used as mobile phase. For detection of the separated substances, the TLC plate was soaked with thymol reagent (0.5 g thymol solved in 95 ml ethanol, 5 ml sulfuric acid added) and heated.
In the entire screening, thirty two genes were identified to encode for α-2,3-sialyltransferases, thus producing 3′-SL. 19 enzymes synthesized 6′-SL and were depicted as α-2,6-sialyltransferases. An α-2,3- as well as an α-2,6-sialyltransferase activity could only be observed for 3 enzymes. […] The screening appeared highly accurate since the described activities of extensively characterized sialyltransferases, e. g. […] Regarding the product formation, the experimental setting allowed a semi-quantitative comparison of the screened enzymes. But to achieve deeper knowledge about their kinetic properties, the 3 potentially best performing α-2,3- and α-2,6-sialyltransferases were applied to in vitro assays.

[3] = 5 mM LNT, 10 mM CMP-Neu5Ac, 16 hours, LC-MS/MS, relative quantity, n.d.: not detectable

Molecule | Relative efficacy of sialyltransferases regarding in-vitro production of sialyllacto-N-tetraoses: LST-a [1, 3] | Described activity to sialylate LNT verified ([1]; in words) | Production of sialyllactose in-vivo [2] | Described activity confirmed in the lactose screening [2] | Relative efficacy of sialyltransferases regarding in-vitro production of sialyllacto-N-tetraoses: LST-b [1, 3]
B1 | 2.98 × 10^3 | could be verified | 3′-SL | could be confirmed | –
B2 | – | – | – | could be confirmed | 13
B3 | 749 | – | 3′-SL | – | –
